According to patent US20250388643A1, “GLUCAGON-LIKE PEPTIDE-2 COMPOSITIONS AND METHODS OF MAKING AND USING SAME” (Amunix Pharmaceuticals, Inc., priority 2011, published 2025):
Entries after “also recorded” stand apart in the source; their conditions may differ. Where two headings read alike, the source gives them in different places.

Tests used:
[1] = test system: indomethacin-induced intestinal inflammation in Wistar rats; assay: Rat Crohn's Disease indomethacin-induced intestinal inflammation model, Study 3; format: in vivo
Protocol: Study 3: A third indomethacin-induced inflammation study was performed to verify previous results and test additional dose regimens. Intestinal inflammation was induced in male Wistar rats (Harlan Sprague Dawley) using indomethacin administered on Days 0 and 1 of the experiment according to Table 21.
All treatments were administered per the schedule starting on Day-3 of the experiment. Body weights were determined daily. On Day 2 (24 hours post-2nd indomethacin dose), the animals were prepped for sacrifice and analysis. The small intestines were removed and the length of each was recorded. Quantitative histopathology was performed on a subset of samples. Rat small intestine samples consisted of a 3 cm section of proximal jejunum and a 3 cm section of mid-jejunum collected 15 cm and 30 cm from the pylorus, respectively. Samples were fixed in 10% neutral buffered formalin. Samples were trimmed into multiple sections without bias toward lesion presence or absence. These sections were placed in cassettes, embedded in paraffin, microtomed at approximately 4 microns thickness, and stained with hematoxylin and eosin (H&E). The slides were evaluated microscopically by a board certified veterinary pathologist and scored for villous height as well as infiltration/inflammation, mucosal atrophy, villi/crypt appearance, abscesses/ulceration. A 1 to 4 severity grading scale was used, where 1=minimal, 2=mild, 3=moderate, 4=marked/severe, reflecting the combination of the cellular reactions seen histopathologically. Small intestine length was analyzed with an ANOVA model with a Tukey/Kramer post-hoc test for pairwise comparisons, with significance at p=0.05. Non-parametric histology score variables were compared with the vehicle control using a Mann Whitney U test with a Bonferroni correction for the p-value to create an overall alpha of 0.05.

[2] = test system: DSS-induced intestinal colitis in C57Bl/6 mice; assay: Murine acute DSS-induced colitis model; format: in vivo, mouse
Protocol: To determine the efficacy of GLP2-XTEN, the GLP2-2G-XTEN-AE864 fusion protein was evaluated in a mouse model of intestinal inflammatory colitis. […] A naïve, non-treated control group (group 1) was given normal drinking water for the duration of the experiment. […] Tissues were fixed in formalin and then transferred to ethanol for staining and histopathology. The anatomical data was analyzed with an ANOVA model with a Tukey/Kramer post-hoc test for pairwise comparisons, with significance at p=0.05.

[3] = test system: indomethacin-induced intestinal inflammation in Wistar rats; assay: Rat Crohn's Disease indomethacin-induced intestinal inflammation model, Study 1; format: in vivo
Protocol: To determine the efficacy of GLP2-XTEN using single dose or qd dosing, the GLP2-2G-XTEN-AE864 fusion protein was evaluated in a rat model of Crohn's Disease of indomethacin-induced intestinal inflammation in three separate studies.
Study 1: Intestinal inflammation was induced in eighty male Wistar rats (Harlan Sprague Dawley) using indomethacin administered on Days 0 and 1 of the experiment. The rats were divided into seven treatment groups for treatment according to Table 19.
All treatments were administered per the schedule starting on Day −3 of the experiment. Body weights were determined daily. Groups 3 and 5 were dosed equimolar/day. On Day 2 (24 hours post-2nd indomethacin dose), the animals were prepped for sacrifice and analysis. Thirty minutes prior to sacrifice, the rats were injected intravenously with 1 ml 1% Evans Blue dye, in order to visualize ulcers and extent of inflammation by histopathology analysis. The rats were anesthetized (SOP 1810), blood samples were removed to determine the concentration of GLP-2-2G-XTEN using the anti-XTEN/anti-GLP2 ELISA method. The rats were euthanized then necropsied and scored by gross examination of the intestines for the presence of adhesions; i.e., none=0, mild=1, moderate=2, or severe=3. The small intestines were removed and the length of each was recorded. In each small intestine, a longitudinal incision was made and the interior was examined. The degree and length of the ulcerated area was recorded as a score; i.e., none=0, few=1, multiple=2, or continuous=3. For TNFα determination, intestinal samples were thawed and homogenized in a total of 20 ml with DPBS. The supernatants were equilibrated to room temperature and assayed for TNFα by ELISA (R&D Systems, Cat. RTA00, lot 281687, exp. 7 Sep. 2011). The samples for Group 1 were assayed undiluted. The samples for Groups 2-7 were diluted 1:4. For histopathology, the small intestines were gently washed with saline to remove the fecal material and were blotted to remove excess fluid. Each small intestine was weighed then processed for histopathology examination to quantitate the degree of inflammation; i.e., 0.0%=0, 1-33%=1, 34-66%=2, 67-100%=3.

[4] = test system: indomethacin-induced intestinal inflammation in Wistar rats; format: in vivo, rat
Protocol: Study 2: Intestinal inflammation was induced in eighty male Wistar rats (Harlan Sprague Dawley) using indomethacin administered on Days 0 and 1 of the experiment. The rats were divided into eight treatment groups for treatment according to Table 20. All treatments were administered per the schedule starting on Day-3 of the experiment. Body weights were determined daily. On Day 2 (24 hours post-2nd indomethacin dose), the animals were prepped for sacrifice and analysis. Thirty minutes prior to sacrifice, the rats were injected intravenously with 1 ml 1% Evans Blue dye, in order to visualize ulcers and extent of inflammation by histopathology analysis. The rats were anesthetized and blood samples were removed to determine the concentration of GLP-2-2G-XTEN using the anti-XTEN/anti-GLP2 ELISA method. The rats were euthanized then necropsied and scored by gross examination of the intestines for the presence of adhesions; i.e., none=0, mild=1, moderate=2, or severe=3. The small intestines were removed and the length of each was recorded. In each small intestine, a longitudinal incision was made and the interior was examined. The degree and length of the ulcerated area was recorded as a score; i.e., none=0, few=1, multiple=2, or continuous=3. The fecal material was washed away with saline and blotted to remove excess fluid and each small intestine was weighed then processed for histopathology examination to quantitate the degree of inflammation; i.e., 0.0%=0, 1-33%=1, 34-66%=2, 67-100%=3.

B1: GLP2-2G-XTEN_AE864: fusion protein of GLP-2 with glycine at position 2 linked at the C-terminus to XTEN AE864; sequence of FIG. 28 (SEQ ID NO: 798) (protein)
chain: HGDGSFSDEMNTILDNLAARDFINWLIQTKITDGGSPAGSPTSTEEGTSESATPESGPGTSTEPSEGSAPGSPAGSPTSTEEGTSTEPSEGSAPGTSTEPSEGSAPGTSESATPESGPGSEPATSGSETPGSEPATSGSETPGSPAGSPTSTEEGTSESATPESGPGTSTEPSEGSAPGTSTEPSEGSAPGSPAGSPTSTEEGTSTEPSEGSAPGTSTEPSEGSAPGTSESATPESGPGTSTEPSEGSAPGTSESATPESGPGSEPATSGSETPGTSTEPSEGSAPGTSTEPSEGSAPGTSESATPESGPGTSESATPESGPGSPAGSPTSTEEGTSESATPESGPGSEPATSGSETPGTSESATPESGPGTSTEPSEGSAPGTSTEPSEGSAPGTSTEPSEGSAPGTSTEPSEGSAPGTSTEPSEGSAPGTSTEPSEGSAPGSPAGSPTSTEEGTSTEPSEGSAPGTSESATPESGPGSEPATSGSETPGTSESATPESGPGSEPATSGSETPGTSESATPESGPGTSTEPSEGSAPGTSESATPESGPGSPAGSPTSTEEGSPAGSPTSTEEGSPAGSPTSTEEGTSESATPESGPGTSTEPSEGSAPGTSESATPESGPGSEPATSGSETPGTSESATPESGPGSEPATSGSETPGTSESATPESGPGTSTEPSEGSAPGSPAGSPTSTEEGTSESATPESGPGSEPATSGSETPGTSESATPESGPGSPAGSPTSTEEGSPAGSPTSTEEGTSTEPSEGSAPGTSESATPESGPGTSESATPESGPGTSESATPESGPGSEPATSGSETPGSEPATSGSETPGSPAGSPTSTEEGTSTEPSEGSAPGTSTEPSEGSAPGSEPATSGSETPGTSESATPESGPGTSTEPSEGSAPG
For B1, the small intestine length ([1]; compared to vehicle-treated diseased rats, FIG. 24A) was “increase in small intestine length”, the “efficacy by regimen compared with peptide” value ([1]; dosed once at 75 nmol/kg or three times at 25 nmol/kg) was “as effective as GLP2-2G peptide dosed ten times at 12.5 nmol/kg” and the villi height ([1]; fusion protein high (total dose 125 nmol/kg) and low (total dose 75 nmol/kg), FIG. 24B) was “significant increase in villi height”. The mucosal atrophy score ([1]; high and low dose, vs vehicle-treated diseased rats, FIG. 24C) was “significantly lower mucosal atrophy score”, the “efficacy in improving indomethacin-induced small intestine damage (histopathology)” value ([1]; rat, in vivo) was “as good or better than GLP2-2G peptide” and the “mucosal ulceration and mixed cell infiltrate” value ([1]; three treatment groups) was “not significant”. For the same molecule, the “histopathology of small intestine” value ([2]; DSS-treated mice, 6 mg/kg qd) was “normal mucosal architecture with elongated villi densely populated with columnar epithelial and goblet cells”, the “loss of body weight” value ([2]; DSS-treated mice, SC days 1-10, peptide BID, fusion protein QD, any dose) was “neither the mice treated with GLP2-2G peptide nor any of the groups of mice treated with any dose of GLP2-2G-XTEN mice showed a reduced loss of body weight” and the “protection of the intestines from inflammatory effects of DSS” value ([2]; conclusion of the experiment) was “protected the intestines from the inflammatory effects of DSS, with maintenance of normal villi and mucosal architecture”. The small intestine weight ([2]; high dose group (6 mg/kg), compared to control groups 1 and 2, day 10) was “increase in small intestine weight”, the small intestine weight ([2]; medium dose group (2 mg/kg), compared to group 1, day 10) was “increase in small intestine weight” and the small intestine weight ([3]; 0.5 mg/kg peptide, both fusion protein groups, compared to diseased control Group 2, FIG. 21C) was “significant increase”. The ulceration score ([3]; 6 mg/kg fusion protein) was “not significantly different from the non-diseased control”, the “scores of adhesions and transulceration” value ([3]; 2 and 6 mg/kg fusion protein) was “not significantly different from the non-diseased control” and the small intestine length ([3]; FIG. 21B) was “significant increase; also recorded: length equivalent to the non-diseased control”. For the same molecule, the “ulceration (gross pathology scoring of small intestine)” value ([3]; FIG. 21D) was “significant decreases in ulceration”, the “small intestine inflammation score” value ([3]; FIG. 21F) was “neither the GLP-2-2G peptide nor the GLP-2-2G-XTEN fusion protein treatments showed a significant effect on inflammation” and the “body weight at termination” value ([3]; compared to disease control (Group 2), FIG. 21A) was “demonstrated a significant increase”. The “scores of adhesions and transulceration” value ([3]; compared to diseased control (Group 2), FIG. 21E) was “significant decreases”, the “TNFα in small intestine (ELISA)” value ([3]; compared to diseased control Group 2, FIG. 21G) was “significantly decreased cytokine levels” and the “efficacy in improving indomethacin-induced small intestine damage” value ([3]; equal nmol/kg dosing) was “as good or better than GLP2-2G peptide”. The “protection of the intestines from inflammatory effects of indomethacin” value ([4]; conclusion of the experiment) was “provided significant protection to the intestines from the inflammatory effects of indomethacin”, the “histopathology: protective effects” value ([4]; daily bid peptide, once-daily fusion protein) was “most pronounced in the ileum, but were also seen in the jejunum” and the efficacy by regimen ([4]; daily dosing at 2 mg/kg) was “greatest efficacy”. The adhesions score ([4]; once-daily fusion protein, daily bid peptide, FIG. 22B) was “nearly complete protection from adhesions”, the small intestine length ([4]; once-daily fusion protein, daily bid peptide, vs indomethacin-treated vehicle control) was “reached statistically significant difference” and the total disease score ([4]; peptide delivered bid, fusion protein delivered qd, vs indomethacin-treated vehicle control) was “significantly improved scores”. For the same molecule, the “fusion protein in blood samples (anti-XTEN/anti-GLP2 ELISA)” value ([4]; rat, in vivo) was “detectable at Day 2 in all animals of Group 4 and Group 8, and three rats in Group 7”, the total disease score ([4]; single doses at 6 or 2 mg/kg, vs indomethacin-treated vehicle control) was “significantly improved scores” and the efficacy by regimen ([4]; single doses of 6 mg/kg or 2 mg/kg) was “significant efficacy in some parameters”. For the same molecule, the adhesions score ([4]; single high-dose 6 mg/kg) was “reached statistically significant difference”.
